# According to patent publication US20240344028A1, “Serum-free media for producing adipocytes for animal consumption” (Mosa Meat B.V., priority 2021, published 2024):
# Tested on: Adipogenic progenitor cells
# Test: 2D adipogenic differentiation with DMAD components removed or at changed concentration
# Assay type: cell-based, bovine
# Details: single component removed from DMAD
# Description: At 90% confluence, proliferated MSCs were trypsinized and seeded in a 96-well collagen coated cell culture plate at 30,000 cells/cm^2 in SF-PM. After 24 hours, adipogenesis was induced by changing SF-PM to DMAD (the serum-free differentiation medium as depicted in Example 1), which was maintained on the cells for a period of 12 days with media changes every 3-4 days. As a control differentiation medium (ctrl), DMEM/F12 with 3% FBS was supplemented with 4 conventional adipogenic inducers (IBMX (Sigma Aldrich-15879; 0.5 mM), dexamethasone (Sigma Aldrich-D4902; 10 μM), rosiglitazone (Sigma Aldrich-R2408; 5 μM) and insulin (Peprotech-10-365; 10 μM)). All 4 inducers were used for the first 3 days of culture and only insulin and rosiglitazone were used for the remaining 9 days.
# Cells were fixed on days 6 and 12 with 4% PFA for 20 minutes at room temperature and washed twice with PBS. Cells were then stained with Hoechst (ThermoFisher 493/503, 1:2000) and BODIPY (Sigma Aldrich 345880, 1:1000) in PBS for 30 minutes. Adipogenic differentiation was quantified using the ImageXPress Pico High Content Analyser (HCA; Molecular devices). The parameters measured were total area of lipid, lipid droplet average area and percentage of positive cells. […]
molecule,measurement,value
"BMP4: Recombinant Human BMP-4 (E. coli derived), 120-05ET from Peprotech (protein, UniProt P12644 293-408, looked up) Bone morphogenetic protein 4: SPKHHSQRARKKNKNCRRHSLYVDFSDVGWNDWIVAPPGYQAFYCHGDCPFPLADHLNSTNHAIVQTLVNSVNSSIPKACCVPTELSAISMLYLDEYDKVVLKNYQEMVVEGCGCR",effect of removing the component from DMAD on percentage of positive cells and total lipid area,significantly decreased differentiation
